The values below come from US20190211099A1, “METHODS AND COMPOSITIONS FOR TREATING CANCER WITH SIGLEC-9 ACTIVITY MODULATORS” (KING'S COLLEGE LONDON, priority 2016, published 2019).

The target in this test is Siglec-9 expressed by primary monocytes, monocyte-derived macrophages and monocytic cell lines (THP-1, U937) (human) (UniProt Q9Y336). Put plainly: cell-based or functional assay.
Sequence of Siglec-9 expressed by primary monocytes, monocyte-derived macrophages and monocytic cell lines (THP-1, U937) (human) (Q9Y336 19-463): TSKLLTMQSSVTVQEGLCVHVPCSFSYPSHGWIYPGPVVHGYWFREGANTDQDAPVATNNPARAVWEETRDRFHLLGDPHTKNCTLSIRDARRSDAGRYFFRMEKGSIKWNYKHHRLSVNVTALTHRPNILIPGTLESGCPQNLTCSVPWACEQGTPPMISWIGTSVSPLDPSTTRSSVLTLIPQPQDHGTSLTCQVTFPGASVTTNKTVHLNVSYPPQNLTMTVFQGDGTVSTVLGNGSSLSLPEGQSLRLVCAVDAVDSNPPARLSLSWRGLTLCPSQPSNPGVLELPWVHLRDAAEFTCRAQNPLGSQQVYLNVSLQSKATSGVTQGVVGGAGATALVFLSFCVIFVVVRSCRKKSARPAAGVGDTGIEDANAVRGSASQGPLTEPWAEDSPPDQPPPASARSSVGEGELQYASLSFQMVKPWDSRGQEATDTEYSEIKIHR

In turn, “MUC1-ST (recombinant secreted MUC1 consisting of 16 tandem repeats carrying sialylated Core-1 glycans, Ig part removed by trypsin) (from UniProt P15941 129-448) (ligand)” returned an IDO mRNA expression in macrophages (qRT-PCR) of 10 to 25 fold.
